Assay results taken from PMC11813886.
Numbering of substitutions follows the chain as printed. Names may count otherwise.

B1: recombinant form of the native mouse FHR-B protein (rFHR-B) Y162H (protein)
chain: EEKTCSPPYILNGIYTPHRIIHKSDDEIRYECNYGFYPVTGSTVSKCTPTGWIPVPRCTLKPCEFPQFKYGRLYYEESLRPNFPVSIGNKYSYKCDNGFSPPSGYSWDYLRCTAQGWEPEVPCVRKCVFHYVENGDSTHWEKIYVQGQSLKVQCYNGYSLQNGQDTMTCTENGWSPPPKCIRINSTRTCGPPPPIDNGDITSLSLPEYEPLSSVDYQCQKYYLLKGNKTITCRNGNWSEPPMCLHACVIPENIMEAHNIILKWRHTEKIYAHSGEDIEFECKRGYQKARGSLPFRTKCINGTINYPTCV
B2: recombinant form of the native mouse FHR-B protein (rFHR-B) T161A; I166V (protein)
chain: B1 chain with T138A, H139Y, I143V

How the values were obtained:
[1] = molecular target: human C3b; assay: ELISA; settings: chain shown with the change; human C3b-coated plates; value read at 50 nM protein (highest concentration); parent: est. 0.69; read off a plot
Sequence of human C3b (chain, as listed by the source, chain 1 of 2): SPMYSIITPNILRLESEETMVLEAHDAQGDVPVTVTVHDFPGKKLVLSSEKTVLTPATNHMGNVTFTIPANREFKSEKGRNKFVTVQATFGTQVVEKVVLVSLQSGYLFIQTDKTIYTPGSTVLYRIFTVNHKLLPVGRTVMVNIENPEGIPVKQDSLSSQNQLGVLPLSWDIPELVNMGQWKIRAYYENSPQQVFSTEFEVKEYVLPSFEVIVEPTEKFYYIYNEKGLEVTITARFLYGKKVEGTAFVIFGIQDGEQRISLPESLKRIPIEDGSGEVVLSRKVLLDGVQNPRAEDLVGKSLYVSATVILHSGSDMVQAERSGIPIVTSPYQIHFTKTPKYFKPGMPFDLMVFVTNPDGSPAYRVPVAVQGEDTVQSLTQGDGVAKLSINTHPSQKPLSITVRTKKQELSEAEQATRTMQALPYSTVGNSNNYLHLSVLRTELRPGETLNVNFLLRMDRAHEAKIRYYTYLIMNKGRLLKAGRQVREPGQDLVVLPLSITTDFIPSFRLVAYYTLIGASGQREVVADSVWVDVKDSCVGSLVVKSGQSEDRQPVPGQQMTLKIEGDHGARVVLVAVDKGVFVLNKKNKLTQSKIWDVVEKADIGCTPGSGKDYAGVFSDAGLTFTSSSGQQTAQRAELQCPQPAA
Sequence of human C3b (chain, as listed by the source, chain 2 of 2): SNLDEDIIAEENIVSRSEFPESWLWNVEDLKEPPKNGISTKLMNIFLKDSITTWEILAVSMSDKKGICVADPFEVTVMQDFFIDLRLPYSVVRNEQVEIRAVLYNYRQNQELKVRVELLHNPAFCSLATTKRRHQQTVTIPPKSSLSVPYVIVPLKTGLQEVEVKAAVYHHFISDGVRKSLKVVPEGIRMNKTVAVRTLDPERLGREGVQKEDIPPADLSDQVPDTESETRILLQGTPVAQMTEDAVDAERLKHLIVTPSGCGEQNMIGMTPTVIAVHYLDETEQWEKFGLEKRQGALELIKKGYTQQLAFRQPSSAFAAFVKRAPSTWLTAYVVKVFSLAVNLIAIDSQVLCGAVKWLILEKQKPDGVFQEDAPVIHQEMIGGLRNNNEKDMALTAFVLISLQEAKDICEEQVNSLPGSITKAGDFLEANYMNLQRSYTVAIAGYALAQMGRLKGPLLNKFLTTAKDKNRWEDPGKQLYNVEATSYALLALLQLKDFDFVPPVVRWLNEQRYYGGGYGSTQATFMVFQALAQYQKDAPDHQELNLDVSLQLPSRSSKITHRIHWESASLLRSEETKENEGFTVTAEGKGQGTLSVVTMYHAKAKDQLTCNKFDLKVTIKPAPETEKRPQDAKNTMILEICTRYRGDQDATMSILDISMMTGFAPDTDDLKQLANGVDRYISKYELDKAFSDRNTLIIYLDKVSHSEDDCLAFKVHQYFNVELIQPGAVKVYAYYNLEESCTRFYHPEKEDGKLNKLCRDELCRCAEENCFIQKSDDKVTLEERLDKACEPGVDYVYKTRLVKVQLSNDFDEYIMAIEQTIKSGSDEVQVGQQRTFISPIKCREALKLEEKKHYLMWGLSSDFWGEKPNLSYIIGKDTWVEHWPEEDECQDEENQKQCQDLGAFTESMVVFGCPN

[2] = molecular target: T1, FHR-B_(Y162H); assay: AUC (analytical ultracentrifugation, sedimentation velocity), self-association (dimerization); settings: chain shown with the change; PBS pH 7; parent: est. 1.0; read off a plot
T1 chain: B1 chain

[3] = molecular target: T2, FHR-B_(T161A,I166V); assay: as above; settings: chain shown with the change; PBS pH 7; parent: est. 1.0; read off a plot
T2 chain: B1 chain with T138A, H139Y, I143V

| Binder | response [1] [Abs 405nm] | other: c(S) height of dimer peak (normalised distribution) [2] | other: c(S) height of dimer peak (normalised distribution) [3] |
| --- | --- | --- | --- |
| B1 | 0.66 | 0.09 |  |
| B2 | 0.66 |  | 0.13 |
